Measured values from US11708423B2, “Chimeric engulfment receptor molecules and methods of use” (CERO THERAPEUTICS, INC., priority 2017, dated 2023).

Legend:
[1] = tested on: CER-transduced CD4+ T cells; experiment: Mass cytometry (CyTOF) with viSNE marker analysis of CER-transduced CD4+ T cells; format: cell-based, human
Text: CD4+ T cells were transduced with lentiviral vector comprising CER104, CER116, or CER117 nucleic acid. CER104 (SEQ ID NO:133) comprises a Tim4 binding domain, Tim4 transmembrane domain, and an engulfment signaling domain comprising a primary engulfment signaling domain comprising a TLR8 signaling domain and a secondary engulfment signaling domain comprising a DAP12 signaling domain. CER116 (SEQ ID NO:143) comprises a Tim4 binding domain, Tim4 transmembrane domain, and an engulfment signaling domain comprising a primary engulfment signaling domain comprising a TRAF6 signaling domain and a secondary engulfment signaling domain comprising a TLR8 signaling domain. CER117 (SEQ ID NO:144) comprises a Tim4 binding domain, Tim4 transmembrane domain, and an engulfment signaling domain comprising a primary engulfment signaling domain comprising a TLR8 signaling domain and a secondary engulfment signaling domain comprising a TRAF6 signaling domain. CER-transduced CD4+ T cells were co-cultured with E7 TCR-transduced CD8+ T cells and HPV+SCC152 target cells and interrogated by mass cytometry (CyTOF) with viSNE for visualization of high dimensional single cell data (FIGS. 82-84). Intact CER-transduced CD4+ T cells are shown in plots displaying tSNE1 (horizontal) and tSNE2 (vertical) axes. 27 intracellular markers were used for the viSNE analysis. Each dot represents a single cell. […] Red represents high expression and blue represents low expression for each marker. Populations of CD4^+ T cells were generated using a clustering algorithm from all 27 markers and overlaid onto the viSNE map. […] Populations of CD4^+ T cells were generated using a clustering algorithm from all 18 markers and overlaid onto the viSNE map (FIG. 83A). […] Color plots by 18 intracellular markers (CD28, CCR7, CD45RA, PD1, CD127, Perforin, CD49d, CD85j, CD38, CD27, Granzyme B, CD57, CD25, CD69, CD154, CD56, HLA-DR, and TCRγδ) show the phenotype across viSNE ‘islands’ (FIG. 83B). Red represents high expression and blue represents low expression for each marker. Highlighted region with arrow indicates cells expressing T cell activation marker CD69. Populations of CD4^+ T cells were generated using a clustering algorithm from 18 intracellular markers (CD28, CCR7, CD45RA, PD1, CD127, Perforin, CD49d, CD85j, CD38, CD27, Granzyme B, CD57, CD25, CD69, CD154, CD56, HLA-DR, and TCRγ6) and overlaid onto the viSNE map. […] Color plots by the 18 intracellular markers show the phenotype across viSNE ‘islands’ (FIG. 84B). Red represents high expression and blue represents low expression for each marker. Highlighted region with arrow indicates cells expressing the naïve T cell marker CD45RA.

human primary B cells [2] = experiment: Proliferation of CER+ B cells co-cultured with paclitaxel treated Jurkat cells (CELLTRACE Violet dilution); format: cell-based; conditions: 5 days co-culture with paclitaxel (30 μM) treated Jurkat cells, no exogenous cytokines
Method: The proliferation capacity of CER19+ and CER21+ human primary B cells was evaluated by co-culture with paclitaxel (30 μM) treated Jurkat lymphoma cells. CER-transduced B cells were labeled with CELLTRACE Violet and then co-cultured with paclitaxel treated Jurkat cells a target cell to effector cell ratio of 5:1 at 37° C. in the absence of exogenous cytokines for 5 days. Proliferation of CER19+ or CER21+B cells was assessed by flow cytometry by measuring dilution of CELLTRACE Violet (FIG. 23). Both CER19+ and CER21+ B cells increased approximately 10-fold after 5 days of co-culture in the absence of exogenous cytokines.

human primary B cells [3] = experiment: Gene expression profile (activation state) of CER21+ B cells; format: cell-based; conditions: CD40, CD40L, RANTES, CXCL10, CXCL11, LTα, TNFa
Text: To evaluate the activation state of CER21+ human primary B cells, gene expression profiles were examined from transduced B cell populations.

[4] = tested on: dexamethasone pre-treated thymocytes; experiment: Phagocytosis of thymocytes by CER Ba/F3 cells in presence or absence of Racl inhibitor; format: cell-based; conditions: Ba/F3 cells, 6 hour co-culture
[5] = tested on: pHrodo-red labeled, dexamethasone treated thymocytes; experiment: Luminal degradation of engulfed thymocytes in CER-transduced Ba/F3 cells (time-lapse imaging); format: cell-based; conditions: FACS purified after overnight co-culture
Method: Luminal degradation in CER-transduced cells was also evaluated following engulfment. Ba/F3 cells transduced with CER21 or CER116 were co-cultured with pHrodo-red labeled, dexamethasone treated thymocytes overnight and subsequently purified by FACS. Target cell destruction was visualized by time-lapse imaging and quantified over time (FIG. 85F). […] CER116-harboring Ba/F3 cells (top) catabolize target cells, allowing cells to return to homeostasis and resume immune responsiveness. The addition of a TRAF6 signaling domain to the CER construct promotes rapid destruction of engulfed material.

[6] = tested on: A549 ALK+Luciferase+ cells; experiment: Adoptive transfer of CER T cells with ALK inhibitor in A549 ALK+ xenograft; format: in vivo, immunodeficient (NSG) mice; conditions: Alectinib 15 mg/kg intraperitoneally + 10e6 CER-transduced human T cells, NSG mice
Method: The combination of CER therapy and ALK inhibitor therapy was also evaluated in vivo. […] A549 ALK+Luciferase^+ cells were engrafted into immunodeficient (NSG) mice 21 days prior to initiation of study and evaluated for engraftment by bioluminescent emission and tumor volume seven days later. […] Animals received 10 μg of systemic IL-2 every 24 hours×3 days following cell infusion and then monitored for tumor progression and cell expansion and persistence thereafter.
Peripheral blood sample was stained with anti-human CD45-APC-conjugated antibody 8 days following cell infusion. Each FACS plot indicates a single animal. A bar graph depicting frequency of human CD45+ cells/μL of peripheral blood at days 4, 8, 16, and 25 post-adoptive transfer of CER122+ T cells (FIG. 77B). Peripheral blood was obtained by retro-orbital bleeding and examined for evidence of T cell engraftment by FACS. The frequency of human-CD45 cells/μL of peripheral blood was determined by FACs using TRUCOUNT (BD Biosciences) beads.

[7] = tested on: HCC159 lung adenocarcinoma cells; experiment: Interferon Gamma secretion, HCC159 co-culture; format: cell-based; conditions: Osimeritinib 0, 1, 5 nM; 18 hours
Method: HCC159 lung adenocarcinoma cells were co-cultured with CER123- or CER126-expressing CD4+ T cells with increasing concentrations of Osimeritnib (0, 1 nM, 5 nM). After 18 hours of co-culture, bulk supernatants were evaluated using a LDH-based cytotoxicity assay. T cells assays were performed using purified, EGFR^+ (transduction marker), CER modified T cells 7 days after activation using CD3 & CD28 microbeads at effector:target cell ratios of 2:1 or 5:1. Control “Mock” T cells were transduced with vector alone. […] Bulk supernatants were also analyzed after 18 hours of co-culture for Interferon Gamma (IFNγ) secretion (FIG. 50). Control “Mock” T cells were transduced with vector alone.

B1: CER104: Tim4 binding and transmembrane domains, TLR8 primary and DAP12 secondary signaling domains; SEQ ID NO:133 (protein)
chain: MSKGLLLLWLVTELWWLYLTPAASEDTIIGFLGQPVTLPCHYLSWSQSRNSMCWGKGSCPNSKCNAELLRTDGTRIISRKSTKYTLLGKVQFGEVSLTISNTNRGDSGVYCCRIEVPGWFNDVKKNVRLELRRATTTKKPTTTTRPTTTPYVTTTTPELLPTTVMTTSVLPTTTPPQTLATTAFSTAVTTCPSTTPGSFSQETTKGSAFTTESETLPASNHSQRSMMTISTDIAVLRPTGSNPGILPSTSQLTTQKTTLTTSESLQKTTKSHQINSRQTILIIACCVGFVLMVLLFLAFLHHLFYWDVWFIYNVCLAKVKGYRSLSTSQTFYDAYISYDTKDASVTDWVINELRYHLEESRDKNVLLCLEERDWDPGLAIIDNLMQSINQSKKTVFVLTKKYAKSWNFKTAFYLALQRLMDENMDVIIFILLEPVLQHSQYLRLRQRICKSSILQWPDNPKAEGLFWQTLRNVVLTENDSRYNNMYVDSIKQYYFLGRLVPRGRGAAEAATRKQRITETESPYQELQGQRSDVYSDLNTQRPYYK
modifications: CER104 protein
memory formation after antigen encounter ([1]; CD4+ T cells): associated with memory formation after antigen encounter | viSNE islands expressing T cell activation marker CD69 ([1]; CD4+ T cells after antigen encounter): enrichment of islands expressing the T cell activation marker CD69 | viSNE islands expressing intracellular marker IFNγ ([1]; CD4+ T cells after co-culture with E7 TCR CD8+ T cells and SCC152 cells): enrichment of islands expressing the intracellular marker IFNγ | viSNE islands expressing naïve T cell marker CD45RA within the CCR7+ population ([1]; compared to controls): loss of islands expressing the naïve T cell marker CD45RA

B2: CER21: Tim4 binding and transmembrane domains, TLR8 signaling domain; SEQ ID NO:88 (protein)
chain: MSKGLLLLWLVTELWWLYLTPAASEDTIIGFLGQPVTLPCHYLSWSQSRNSMCWGKGSCPNSKCNAELLRTDGTRIISRKSTKYTLLGKVQFGEVSLTISNTNRGDSGVYCCRIEVPGWFNDVKKNVRLELRRATTTKKPTTTTRPTTTPYVTTTTPELLPTTVMTTSVLPTTTPPQTLATTAFSTAVTTCPSTTPGSFSQETTKGSAFTTESETLPASNHSQRSMMTISTDIAVLRPTGSNPGILPSTSQLTTQKTTLTTSESLQKTTKSHQINSRQTILIIACCVGFVLMVLLFLAFLHHLFYWDVWFIYNVCLAKVKGYRSLSTSQTFYDAYISYDTKDASVTDWVINELRYHLEESRDKNVLLCLEERDWDPGLAIIDNLMQSINQSKKTVFVLTKKYAKSWNFKTAFYLALQRLMDENMDVIIFILLEPVLQHSQYLRLRQRICKSSILQWPDNPKAEGLFWQTLRNVVLTENDSRYNNMYVDSIKQY
modifications: CER21 chimeric engulfment receptor
increase of CER+ B cells (human primary B cells [2]): approximately 10 fold | activation state (B cell mRNA levels compared to transduced control B cells) (human primary B cells [3]): promoted B cell activation molecules and survival factors | pHrodo+ signal (phagocytosis of thymocytes), FACS [4]: considerable pHrodo+ signal indicating phagocytosis of target thymocytes | luminal content degradation over time [5]: broken down over-time

B3: CER122: Tim4 binding and transmembrane domains, TLR2 primary and DAP12 secondary signaling domains; SEQ ID NO:149 (protein)
chain: MSKGLLLLWLVTELWWLYLTPAASEDTIIGFLGQPVTLPCHYLSWSQSRNSMCWGKGSCPNSKCNAELLRTDGTRIISRKSTKYTLLGKVQFGEVSLTISNTNRGDSGVYCCRIEVPGWFNDVKKNVRLELRRATTTKKPTTTTRPTTTPYVTTTTPELLPTTVMTTSVLPTTTPPQTLATTAFSTAVTTCPSTTPGSFSQETTKGSAFTTESETLPASNHSQRSMMTISTDIAVLRPTGSNPGILPSTSQLTTQKTTLTTSESLQKTTKSHQINSRQTILIIACCVGFVLMVLLFLAFLHRFHGLWYMKMMWAWLQAKRKPRKAPSRNICYDAFVSYSERDAYWVENLMVQELENFNPPFKLCLHKRDFIPGKWIIDNIIDSIEKSHKTVFVLSENFVKSEWCKYELDFSHFRLFDENNDAAILILLEPIEKKAIPQRFCKLRKIMNTKTYLEWPMDEAQREGFWVNLRAAIKSYFLGRLVPRGRGAAEAATRKQRITETESPYQELQGQRSDVYSDLNTQRPYYK
modifications: CER122 protein
anti-tumor response (tumor volume, bioluminescence) [6]: enhanced anti-tumor response to ALK+NSCLC in vivo

B4: CER123: Tim4 binding and transmembrane domains, TLR2 primary and TRAF6 secondary signaling domains; SEQ ID NO:150 (protein)
chain: MSKGLLLLWLVTELWWLYLTPAASEDTIIGFLGQPVTLPCHYLSWSQSRNSMCWGKGSCPNSKCNAELLRTDGTRIISRKSTKYTLLGKVQFGEVSLTISNTNRGDSGVYCCRIEVPGWFNDVKKNVRLELRRATTTKKPTTTTRPTTTPYVTTTTPELLPTTVMTTSVLPTTTPPQTLATTAFSTAVTTCPSTTPGSFSQETTKGSAFTTESETLPASNHSQRSMMTISTDIAVLRPTGSNPGILPSTSQLTTQKTTLTTSESLQKTTKSHQINSRQTILIIACCVGFVLMVLLFLAFLHRFHGLWYMKMMWAWLQAKRKPRKAPSRNICYDAFVSYSERDAYWVENLMVQELENFNPPFKLCLHKRDFIPGKWIIDNIIDSIEKSHKTVFVLSENFVKSEWCKYELDFSHFRLFDENNDAAILILLEPIEKKAIPQRFCKLRKIMNTKTYLEWPMDEAQREGFWVNLRAAIKSMSLLNCENSCGSSQSESDCCVAMASSCSAVTKDDSVGGTASTGNLSSSFMEEIQGYDVEFDPPLESKYECPICLMALREAVQTPCGHRFCKACIIKSIRDAGHKCPVDNEILLENQLFPDNFAKREILSLMVKCPNEGCLHKMELRHLEDHQAHCEFALMDCPQCQRPFQKFHINIHILKDCPRRQVSCDNCAASMAFEDKEIHDQNCPLANVICEYCNTILIREQMPNHYDLDCPTAPIPCTFSTFGCHEKMQRNHLARHLQENTQSHMRMLA
modifications: CER123 protein
Interferon Gamma (IFNγ) secretion [7]: inducible cytokine secretion
